Test results from article PMC2677886 (Nucleic Acids Research, 2009).
Values belong to the binder of their own block, whether it stands above or below them.

Molecular target: RECQ5–CBD fusion protein (human, UniProt O94762 1-991)
Assay: pull-down

Chain of RECQ5–CBD fusion protein (O94762 whole entry, the tested form may be a part): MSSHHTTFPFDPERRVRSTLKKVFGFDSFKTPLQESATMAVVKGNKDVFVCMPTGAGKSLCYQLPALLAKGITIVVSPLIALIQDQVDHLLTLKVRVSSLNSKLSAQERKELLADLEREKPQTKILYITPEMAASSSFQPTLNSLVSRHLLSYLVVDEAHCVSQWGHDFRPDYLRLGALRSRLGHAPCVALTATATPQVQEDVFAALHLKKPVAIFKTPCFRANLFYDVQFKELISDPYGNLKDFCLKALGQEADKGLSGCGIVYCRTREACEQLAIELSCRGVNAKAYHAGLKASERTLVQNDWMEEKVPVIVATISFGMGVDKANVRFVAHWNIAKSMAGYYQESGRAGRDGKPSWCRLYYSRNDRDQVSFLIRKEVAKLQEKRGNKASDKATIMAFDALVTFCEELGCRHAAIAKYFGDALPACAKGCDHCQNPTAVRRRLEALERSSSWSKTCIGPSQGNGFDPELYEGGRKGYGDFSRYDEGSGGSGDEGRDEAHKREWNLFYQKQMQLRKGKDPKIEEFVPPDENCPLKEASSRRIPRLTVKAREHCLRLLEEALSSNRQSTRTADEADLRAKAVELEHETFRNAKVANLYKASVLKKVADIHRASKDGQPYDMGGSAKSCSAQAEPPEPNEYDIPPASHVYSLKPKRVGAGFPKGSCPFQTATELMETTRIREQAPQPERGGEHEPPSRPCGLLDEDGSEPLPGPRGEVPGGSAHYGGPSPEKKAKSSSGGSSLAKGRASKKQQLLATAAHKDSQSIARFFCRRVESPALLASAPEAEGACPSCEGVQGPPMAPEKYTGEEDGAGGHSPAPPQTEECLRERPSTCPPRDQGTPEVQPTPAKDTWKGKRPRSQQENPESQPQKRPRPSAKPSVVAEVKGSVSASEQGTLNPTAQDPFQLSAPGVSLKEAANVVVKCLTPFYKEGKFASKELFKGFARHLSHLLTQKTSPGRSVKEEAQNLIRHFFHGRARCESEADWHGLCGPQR

binding result: binds
B1: (His)6-MRE11, individually purified (natural protein, human, UniProt P49959 1-708, looked up)
chain: MSTADALDDENTFKILVATDIHLGFMEKDAVRGNDTFVTLDEILRLAQENEVDFILLGGDLFHENKPSRKTLHTCLELLRKYCMGDRPVQFEILSDQSVNFGFSKFPWVNYQDGNLNISIPVFSIHGNHDDPTGADALCALDILSCAGFVNHFGRSMSVEKIDISPVLLQKGSTKIALYGLGSIPDERLYRMFVNKKVTMLRPKEDENSWFNLFVIHQNRSKHGSTNFIPEQFLDDFIDLVIWGHEHECKIAPTKNEQQLFYISQPGSSVVTSLSPGEAVKKHVGLLRIKGRKMNMHKIPLHTVRQFFMEDIVLANHPDIFNPDNPKVTQAIQSFCLEKIEEMLENAERERLGNSHQPEKPLVRLRVDYSGGFEPFSVLRFSQKFVDRVANPKDIIHFFRHREQKEKTGEEINFGKLITKPSEGTTLRVEDLVKQYFQTAEKNVQLSLLTERGMGEAVQEFVDKEEKDAIEELVKYQLEKTQRFLKERHIDALEDKIDEEVRRFRETRQKNTNEEDDEVREAMTRARALRSQSEESASAFSADDLMSIDLAEQMANDSDDSISAATNKGRGRGRGRRGGRGQNSASRGGSQRGRADTGLETSTRSRNSKTAVSASRNMSIIDAFKSTRQQPSRNVTTKNYSEVIEVDESDVEEDIFPTTSKTDQRWSSTSSSKIMSQSQVSKGVDFESSEDDDDDPFMNTSSLRRNRR

binding result: binds
B2: (His)6-NBS1, individually purified (natural protein, human, UniProt O60934 1-754, looked up)
chain: MWKLLPAAGPAGGEPYRLLTGVEYVVGRKNCAILIENDQSISRNHAVLTANFSVTNLSQTDEIPVLTLKDNSKYGTFVNEEKMQNGFSRTLKSGDGITFGVFGSKFRIEYEPLVACSSCLDVSGKTALNQAILQLGGFTVNNWTEECTHLVMVSVKVTIKTICALICGRPIVKPEYFTEFLKAVESKKQPPQIESFYPPLDEPSIGSKNVDLSGRQERKQIFKGKTFIFLNAKQHKKLSSAVVFGGGEARLITEENEEEHNFFLAPGTCVVDTGITNSQTLIPDCQKKWIQSIMDMLQRQGLRPIPEAEIGLAVIFMTTKNYCDPQGHPSTGLKTTTPGPSLSQGVSVDEKLMPSAPVNTTTYVADTESEQADTWDLSERPKEIKVSKMEQKFRMLSQDAPTVKESCKTSSNNNSMVSNTLAKMRIPNYQLSPTKLPSINKSKDRASQQQQTNSIRNYFQPSTKKRERDEENQEMSSCKSARIETSCSLLEQTQPATPSLWKNKEQHLSENEPVDTNSDNNLFTDTDLKSIVKNSASKSHAAEKLRSNKKREMDDVAIEDEVLEQLFKDTKPELEIDVKVQKQEEDVNVRKRPRMDIETNDTFSDEAVPESSKISQENEIGKKRELKEDSLWSAKEISNNDKLQDDSEMLPKKLLLTEFRSLVIKNSTSRNPSGINDDYGQLKNFKKFKKVTYPGAGKLPHIIGGSDLIAHHARKNTELEEWLRQEMEVQNQHAKEESLADDLFRYNPYLKRRR
